Biological target: recombinant human HIS-tagged CFP (human, UniProt P27918 28-469)
Experiment: SPR

Sequence of recombinant human HIS-tagged CFP (P27918 28-469): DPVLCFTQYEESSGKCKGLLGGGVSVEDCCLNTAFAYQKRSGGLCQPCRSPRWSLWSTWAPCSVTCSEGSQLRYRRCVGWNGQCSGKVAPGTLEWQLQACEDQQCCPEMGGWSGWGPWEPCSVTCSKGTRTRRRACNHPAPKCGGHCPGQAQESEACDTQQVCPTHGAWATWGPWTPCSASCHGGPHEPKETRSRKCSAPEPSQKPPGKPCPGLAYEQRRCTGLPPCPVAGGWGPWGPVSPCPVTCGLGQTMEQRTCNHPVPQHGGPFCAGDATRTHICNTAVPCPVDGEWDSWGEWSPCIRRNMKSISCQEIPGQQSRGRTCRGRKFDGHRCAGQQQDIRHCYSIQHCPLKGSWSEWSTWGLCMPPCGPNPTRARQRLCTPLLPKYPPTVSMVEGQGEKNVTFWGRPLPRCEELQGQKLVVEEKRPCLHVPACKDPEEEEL

B1: mouse NKp46-Fc (Fc fusion)
chain: QRINTEKETLPKPIIWAKPSIMVTNGNSVNIWCQGAQSASEYQLYFEGSFFALERPKPSRSMNKVRFFISQMTSHTAGIYTCFYQSGELWSKSSNPLKLVVTGLYDTPNLWVYPQPEVTLGENVTFFCQLKTATSKFFLLKERGSNHIQNKYGNIQAEFPMGPVTRAHRGTYRCFGSYNDYAWSFPSEPVTLLITGGVENSSLAPTDPTSSLDYWEFDLSTNESGLQKDSAFWDHTTQN
B1: binds.

Source: article PMC5419422 (Science immunology, 2017)
